Among the data in publication PMC10467048 are stoichiometry N values, retold here.

Assay [1] addresses CTB−JEV EDIII (not stated | Japanese encephalitis virus). The assay is described as follows: PAGE after incubation at different temperatures.
For assay [2] the target is unchanged. The assay is described as follows: PAGE under non-reduced conditions (without boiling, without DTT).
Assay [3] deals with LTB−JEV EDIII (TEV cut) (not stated | Japanese encephalitis virus). Put plainly: PAGE after incubation at different temperatures.
The target is the same in assay [4]. Put plainly: SEC. (In general: In gel filtration, larger molecules generally elute earlier.)
For assay [5] the target is unchanged. Put plainly: PAGE under non-reduced conditions (without boiling, without DTT).

On to CTB−JEV EDIII, for which the stoichiometry N in assay [1] and in assay [2] was 5 each time.
As for LTB−JEV EDIII (TEV cut), the stoichiometry N in assay [3], in assay [4] and in assay [5] was 5 in each case.

For orientation: stoichiometry N means the number of molecules, sites or subunits per partner or assembly.
